Measured values reported in patent US20250101089A1.

What follows are substances tested against 6×His human TRIM21 PRYSPRY labelled with Alexa Fluor 488 (human) (UniProt P19474) (assay: fluorescence anisotropy; 5 nM Alexa Fluor 488-labelled human TRIM21 PRYSPRY, antibody titrated).
Chain of UniProt P19474 (P19474 287-465 limits assumed): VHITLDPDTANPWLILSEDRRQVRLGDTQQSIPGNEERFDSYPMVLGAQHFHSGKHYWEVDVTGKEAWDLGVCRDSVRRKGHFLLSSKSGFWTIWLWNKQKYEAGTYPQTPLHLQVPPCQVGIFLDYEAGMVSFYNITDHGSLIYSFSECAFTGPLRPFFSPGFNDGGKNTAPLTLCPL

Row | Substance | Kd [nM] | fold increase in affinity against 9C12 WT [fold]
1 | 9C12 T256P (mouse-human chimeric, human IgG1 Fc) (antibody) | 1 | 10
2 | AP422 N297A (mouse-human chimeric, human IgG1 Fc region) (antibody) | 14 | –
3 | AP422 N297A T256P (mouse-human chimeric, human IgG1 Fc region) (antibody) | 0.9 | –
4 | AP422 NALALA (N297A, L234A, L235A; mouse-human chimeric, human IgG1 Fc region) (antibody) | 29 | –

These reach a lower Kd. Values come first.

Row | Kd [nM] | fold increase in affinity against 9C12 WT [fold] | Substance
5 | 0.467 | – | 9C12 N297A T256P (mouse-human chimeric, human IgG1 Fc) (antibody)
6 | 0.1 | – | AP422 NALALA T256P (mouse-human chimeric, human IgG1 Fc region) (antibody)
7 | 0.7 | – | AP422 T256P (mouse-human chimeric, human IgG1 Fc region) (antibody)
